Measurements taken from publication PMC6555819, “Comprehensive study of nuclear receptor DNA binding provides a revised framework for understanding receptor specificity”.

B1: NRC3_wobSeed134_DR5_G11T_o1 (dsDNA)
DNA 1: GCGCTGCTAGTTCAACTGATGGTCAGCTAAAGCTCGGCGATTGACAGCGTAGAATGAAGG
DNA 2: CCTTCATTCTACGCTGTCAATCGCCGAGCTTTAGCTGACCATCAGTTGAACTAGCAGCGC
B2: NRC3_random_hg19_261_o1 (dsDNA)
DNA 1: GCCTGGCTCCAGACAGACAAGAAGACTCCTTCAGTCGCGATTGACAGCGTAGAATGAAGG
DNA 2: CCTTCATTCTACGCTGTCAATCGCGACTGAAGGAGTCTTCTTGTCTGTCTGGAGCCAGGC
B3: NRC3_wobSeed120_DR4_T8A_o1 (dsDNA)
DNA 1: GCCCGAGAAGGTTACGAGGGGGCATTCAGTGCGAATGCGATTGACAGCGTAGAATGAAGG
DNA 2: CCTTCATTCTACGCTGTCAATCGCATTCGCACTGAATGCCCCCTCGTAACCTTCTCGGGC
B4: NRC3_random_hg19_69_o1 (dsDNA)
DNA 1: GCCCAGGTGGCAGGATCCCTGCATCTGGTTTCCTCAGCGATTGACAGCGTAGAATGAAGG
DNA 2: CCTTCATTCTACGCTGTCAATCGCTGAGGAAACCAGATGCAGGGATCCTGCCACCTGGGC
B5: NRC3_random_hg19_425_o1 (dsDNA)
DNA 1: GCCTGTTAGGTTGATTCTATGTCTTGGCTATTGTGTGCGATTGACAGCGTAGAATGAAGG
DNA 2: CCTTCATTCTACGCTGTCAATCGCACACAATAGCCAAGACATAGAATCAACCTAACAGGC
B6: NRC3_wobSeed21_DR0_A19C_o1 (dsDNA)
DNA 1: GCCGTCAAAGTTCAAGGTCACGTAACAGAAAGCAGCGCGATTGACAGCGTAGAATGAAGG
DNA 2: CCTTCATTCTACGCTGTCAATCGCGCTGCTTTCTGTTACGTGACCTTGAACTTTGACGGC
B7: NRC3_wobSeed29_DR1_G9A_o1 (dsDNA)
DNA 1: GCGCTTACAGGTCAAAGGTTATAGCATGAATAGAATGCGATTGACAGCGTAGAATGAAGG
DNA 2: CCTTCATTCTACGCTGTCAATCGCATTCTATTCATGCTATAACCTTTGACCTGTAAGCGC
B8: NRC3_random_hg19_255_o1 (dsDNA)
DNA 1: GCGGAGGGCAGGCAGGCCTGGAGGAGCATGTGGTGTGCGATTGACAGCGTAGAATGAAGG
DNA 2: CCTTCATTCTACGCTGTCAATCGCACACCACATGCTCCTCCAGGCCTGCCTGCCCTCCGC
B9: NRC3_random_hg19_94_o1 (dsDNA)
DNA 1: GCACTATCTTGTGTCTCATCTGAGACATAGATGGATGCGATTGACAGCGTAGAATGAAGG
DNA 2: CCTTCATTCTACGCTGTCAATCGCATCCATCTATGTCTCAGATGAGACACAAGATAGTGC
B10: NRC3_random_hg19_311_o1 (dsDNA)
DNA 1: GCTCACTTATGAAGCTTAGGTTGGCTGGATATGAAAGCGATTGACAGCGTAGAATGAAGG
DNA 2: CCTTCATTCTACGCTGTCAATCGCTTTCATATCCAGCCAACCTAAGCTTCATAAGTGAGC
B11: NRC3_wobSeed42_DR1_A6T_o1 (dsDNA)
DNA 1: GCTATTCAGGGTCAAAGGCCAGAGTACGAATGTCGAGCGATTGACAGCGTAGAATGAAGG
DNA 2: CCTTCATTCTACGCTGTCAATCGCTCGACATTCGTACTCTGGCCTTTGACCCTGAATAGC
B12: NRC3_random_hg19_256_o1 (dsDNA)
DNA 1: GCAGGAGAAACCCACGCTGGTGTCATCACAGGTTCAGCGATTGACAGCGTAGAATGAAGG
DNA 2: CCTTCATTCTACGCTGTCAATCGCTGAACCTGTGATGACACCAGCGTGGGTTTCTCCTGC
B13: NRC3_random_hg19_442_o1 (dsDNA)
DNA 1: GCTACGGAGTGCTGATCAGTCAGGTTGGAGATGGAAGCGATTGACAGCGTAGAATGAAGG
DNA 2: CCTTCATTCTACGCTGTCAATCGCTTCCATCTCCAACCTGACTGATCAGCACTCCGTAGC
B14: NRC3_random_hg19_272_o1 (dsDNA)
DNA 1: GCGTGCATTTGCTCCCAGAGGCTCTGCTCTTGCCCTGCGATTGACAGCGTAGAATGAAGG
DNA 2: CCTTCATTCTACGCTGTCAATCGCAGGGCAAGAGCAGAGCCTCTGGGAGCAAATGCACGC
B15: NRC3_random_hg19_430_o1 (dsDNA)
DNA 1: GCGAAGGACCTTTAGATCCTGAGACAGAACTTAGGCGCGATTGACAGCGTAGAATGAAGG
DNA 2: CCTTCATTCTACGCTGTCAATCGCGCCTAAGTTCTGTCTCAGGATCTAAAGGTCCTTCGC
B16: NRC3_random_hg19_145_o1 (dsDNA)
DNA 1: GCGCCCAGTAGTTTGAGACCAGCCTGGACAACATGGGCGATTGACAGCGTAGAATGAAGG
DNA 2: CCTTCATTCTACGCTGTCAATCGCCCATGTTGTCCAGGCTGGTCTCAAACTACTGGGCGC
B17: NRC3_random_hg19_234_o1 (dsDNA)
DNA 1: GCTAACTGGCACCTTTGGGAACTACATGTTTCCTGTGCGATTGACAGCGTAGAATGAAGG
DNA 2: CCTTCATTCTACGCTGTCAATCGCACAGGAAACATGTAGTTCCCAAAGGTGCCAGTTAGC
B18: NRC3_random_hg19_57_o1 (dsDNA)
DNA 1: GCTAGCTGAGACTACATGCCACCATGCCTGGCTAATGCGATTGACAGCGTAGAATGAAGG
DNA 2: CCTTCATTCTACGCTGTCAATCGCATTAGCCAGGCATGGTGGCATGTAGTCTCAGCTAGC
B19: NRC3_random_hg19_163_o1 (dsDNA)
DNA 1: GCCAGTGAGCCGAGATCATGCCACTGCACTCCAGCCGCGATTGACAGCGTAGAATGAAGG
DNA 2: CCTTCATTCTACGCTGTCAATCGCGGCTGGAGTGCAGTGGCATGATCTCGGCTCACTGGC
B20: NRC3_random_hg19_104_o1 (dsDNA)
DNA 1: GCTGTAATCACGGTGTGTGAACTACTCATATCGAGTGCGATTGACAGCGTAGAATGAAGG
DNA 2: CCTTCATTCTACGCTGTCAATCGCACTCGATATGAGTAGTTCACACACCGTGATTACAGC
B21: NRC3_random_hg19_431_o1 (dsDNA)
DNA 1: GCAGCCATATGCAAATGAGTACATCCTGTGTGATTCGCGATTGACAGCGTAGAATGAAGG
DNA 2: CCTTCATTCTACGCTGTCAATCGCGAATCACACAGGATGTACTCATTTGCATATGGCTGC
B22: NRC3_random_hg19_203_o1 (dsDNA)
DNA 1: GCGATGTAACAATGCAGGGTGGTCTTGGTCTTTGGCGCGATTGACAGCGTAGAATGAAGG
DNA 2: CCTTCATTCTACGCTGTCAATCGCGCCAAAGACCAAGACCACCCTGCATTGTTACATCGC
B23: NRC3_random_hg19_129_o1 (dsDNA)
DNA 1: GCGAAGTTTAGAAACTTGCCCTAAGTCACCTAACTAGCGATTGACAGCGTAGAATGAAGG
DNA 2: CCTTCATTCTACGCTGTCAATCGCTAGTTAGGTGACTTAGGGCAAGTTTCTAAACTTCGC

biological target: RXRa (Homo sapiens, UniProt P19793); experiment: no ligand; PBM; 180 nM; PBS pH 7.4, 2% milk, 0.02% Triton X-100, 1 mM DTT, BSA, 0.4 mg/ml salmon testes DNA; settings: tags: His cleaved; chain copies: 2; label: surface-attached array probe
Sequence (P19793 whole entry): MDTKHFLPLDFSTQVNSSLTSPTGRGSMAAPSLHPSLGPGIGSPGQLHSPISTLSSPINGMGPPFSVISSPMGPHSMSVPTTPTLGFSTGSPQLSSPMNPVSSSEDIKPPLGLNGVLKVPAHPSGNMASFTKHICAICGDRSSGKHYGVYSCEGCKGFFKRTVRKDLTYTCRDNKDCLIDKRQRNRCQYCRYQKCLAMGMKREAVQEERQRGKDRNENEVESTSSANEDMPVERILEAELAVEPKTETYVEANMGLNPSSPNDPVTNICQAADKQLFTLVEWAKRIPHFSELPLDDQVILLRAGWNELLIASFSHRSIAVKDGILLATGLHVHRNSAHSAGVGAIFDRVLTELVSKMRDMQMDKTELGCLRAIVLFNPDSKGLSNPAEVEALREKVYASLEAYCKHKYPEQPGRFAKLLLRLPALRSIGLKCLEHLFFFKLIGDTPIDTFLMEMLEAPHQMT

Row | Binder | binding signal
1 | B1 | 0.29 PBM z-score against 500 random probes
2 | B2 | -0.45 PBM z-score against 500 random probes

biological target: RARg:RXRa (Homo sapiens, UniProt P13631;P19793 full;full); experiment: no ligand; PBM; 270 nM : 90 nM RXRa; PBS pH 7.4, 2% milk, 0.02% Triton X-100, 1 mM DTT, BSA, 0.4 mg/ml salmon testes DNA; settings: tags: His kept;His cleaved; copies: 1;1; label: surface-attached array probe
Method in brief: (§1)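 Custom Agilent 4×180K protein-binding microarrays carried double-stranded probes, each with a 34-nt variable region. These regions held direct-repeat seeds, single-nucleotide variants, half-site ablations and random human genomic background sequences. Ligand-free nuclear receptor dimers were incubated on the arrays for 1 h, antibodies against each partner (one per run) detected binding, and scanned fluorescence was regression-normalized. Binding z-scores take the random background probes as reference.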

RARg:RXRa, sequence (P13631 whole entry, chain 1 of 2): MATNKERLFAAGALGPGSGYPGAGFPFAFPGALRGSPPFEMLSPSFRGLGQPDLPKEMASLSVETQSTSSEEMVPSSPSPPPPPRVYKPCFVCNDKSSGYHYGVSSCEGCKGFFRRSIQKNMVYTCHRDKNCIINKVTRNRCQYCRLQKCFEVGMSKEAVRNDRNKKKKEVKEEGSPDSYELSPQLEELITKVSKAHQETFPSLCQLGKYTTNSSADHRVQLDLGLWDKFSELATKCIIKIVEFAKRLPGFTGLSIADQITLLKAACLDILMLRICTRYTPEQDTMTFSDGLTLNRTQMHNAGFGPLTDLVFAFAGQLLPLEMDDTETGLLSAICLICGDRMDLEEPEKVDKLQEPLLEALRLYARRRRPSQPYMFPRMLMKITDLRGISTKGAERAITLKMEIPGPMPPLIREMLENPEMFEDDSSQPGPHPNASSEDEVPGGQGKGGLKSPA
RARg:RXRa, sequence (P19793 whole entry, chain 2 of 2): as the sequence (P19793 whole entry) above

Row | Binder | binding signal
3 | B3 | 4.2 PBM z-score against 500 random probes

biological target: FXR:RXRa (Homo sapiens, UniProt Q96RI1;P19793 full;full); experiment: as above; settings: tags: His kept;His cleaved; copies: 1;1; label: surface-attached array probe
Method in brief: as §1

FXR:RXRa, sequence (Q96RI1 whole entry, chain 1 of 2): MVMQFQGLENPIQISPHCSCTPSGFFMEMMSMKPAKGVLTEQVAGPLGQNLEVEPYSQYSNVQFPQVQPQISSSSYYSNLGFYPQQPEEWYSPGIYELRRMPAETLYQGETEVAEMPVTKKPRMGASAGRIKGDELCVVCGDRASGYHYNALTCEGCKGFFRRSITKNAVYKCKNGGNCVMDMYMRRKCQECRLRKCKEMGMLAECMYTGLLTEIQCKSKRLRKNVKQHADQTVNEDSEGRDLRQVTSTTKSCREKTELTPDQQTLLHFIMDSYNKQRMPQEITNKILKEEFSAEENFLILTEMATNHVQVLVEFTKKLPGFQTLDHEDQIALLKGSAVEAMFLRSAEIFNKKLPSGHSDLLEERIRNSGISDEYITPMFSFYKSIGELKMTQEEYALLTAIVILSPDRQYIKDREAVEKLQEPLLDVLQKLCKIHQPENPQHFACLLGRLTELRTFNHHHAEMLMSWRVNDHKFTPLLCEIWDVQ
FXR:RXRa, sequence (P19793 whole entry, chain 2 of 2): as the sequence (P19793 whole entry) above

Row | Binder | binding signal
4 | B4 | -0.63 PBM z-score against 500 random probes
5 | B5 | 0.23 PBM z-score against 500 random probes
6 | B6 | 7.82 PBM z-score against 500 random probes
7 | B7 | 8.14 PBM z-score against 500 random probes
8 | B8 | -0.16 PBM z-score against 500 random probes

biological target: PPARa:RXRa (Homo sapiens, UniProt Q07869;P19793 full;full); experiment: as above; settings: tags: GST kept;His cleaved; copies: 1;1; label: surface-attached array probe
Method in brief: as §1

PPARa:RXRa, sequence (Q07869 whole entry, chain 1 of 2): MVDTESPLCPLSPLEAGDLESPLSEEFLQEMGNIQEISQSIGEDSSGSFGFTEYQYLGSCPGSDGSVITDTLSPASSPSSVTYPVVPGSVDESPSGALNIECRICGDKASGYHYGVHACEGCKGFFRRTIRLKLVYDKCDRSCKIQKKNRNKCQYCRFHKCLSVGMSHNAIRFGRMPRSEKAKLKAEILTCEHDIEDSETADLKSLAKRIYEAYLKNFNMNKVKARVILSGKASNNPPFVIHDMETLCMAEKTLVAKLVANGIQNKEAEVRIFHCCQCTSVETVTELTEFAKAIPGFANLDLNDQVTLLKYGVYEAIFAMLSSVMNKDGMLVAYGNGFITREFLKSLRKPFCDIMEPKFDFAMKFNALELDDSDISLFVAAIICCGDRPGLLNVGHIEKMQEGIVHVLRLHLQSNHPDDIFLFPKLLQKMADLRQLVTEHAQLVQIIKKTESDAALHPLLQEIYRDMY
PPARa:RXRa, sequence (P19793 whole entry, chain 2 of 2): as the sequence (P19793 whole entry) above

Row | Binder | binding signal
9 | B9 | -0.62 PBM z-score against 500 random probes
10 | B1 | 0.24 PBM z-score against 500 random probes
11 | B10 | -0.15 PBM z-score against 500 random probes
12 | B6 | 6.5 PBM z-score against 500 random probes
13 | B11 | 6.67 PBM z-score against 500 random probes

biological target: LXRa:RXRa (Homo sapiens, UniProt Q13133;P19793 full;full); experiment: as above; settings: tags: His kept;His cleaved; copies: 1;1; label: surface-attached array probe
Method in brief: as §1

LXRa:RXRa, sequence (Q13133 whole entry, chain 1 of 2): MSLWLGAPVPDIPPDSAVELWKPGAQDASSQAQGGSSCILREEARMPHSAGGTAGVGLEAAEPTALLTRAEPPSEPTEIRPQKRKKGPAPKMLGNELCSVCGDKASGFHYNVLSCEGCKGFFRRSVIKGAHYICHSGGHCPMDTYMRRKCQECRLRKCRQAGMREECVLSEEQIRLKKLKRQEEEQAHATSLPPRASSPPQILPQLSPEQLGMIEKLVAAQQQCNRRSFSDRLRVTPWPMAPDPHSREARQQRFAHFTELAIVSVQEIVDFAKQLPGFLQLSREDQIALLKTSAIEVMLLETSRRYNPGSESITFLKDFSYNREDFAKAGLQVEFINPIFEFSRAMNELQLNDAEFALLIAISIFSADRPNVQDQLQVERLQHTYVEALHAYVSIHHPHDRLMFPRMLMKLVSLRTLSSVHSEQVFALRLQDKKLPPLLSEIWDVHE
LXRa:RXRa, sequence (P19793 whole entry, chain 2 of 2): as the sequence (P19793 whole entry) above

Row | Binder | binding signal
14 | B9 | -0.69 PBM z-score against 500 random probes
15 | B12 | -0.16 PBM z-score against 500 random probes
16 | B1 | 0.25 PBM z-score against 500 random probes
17 | B13 | -0.9 PBM z-score against 500 random probes
18 | B14 | -0.36 PBM z-score against 500 random probes
19 | B15 | -0.59 PBM z-score against 500 random probes
20 | B2 | -1.08 PBM z-score against 500 random probes
21 | B10 | 0.15 PBM z-score against 500 random probes
22 | B16 | -0.81 PBM z-score against 500 random probes
23 | B17 | -0.32 PBM z-score against 500 random probes
24 | B4 | -0.63 PBM z-score against 500 random probes
25 | B3 | 8.13 PBM z-score against 500 random probes
26 | B18 | -0.61 PBM z-score against 500 random probes
27 | B5 | 0.31 PBM z-score against 500 random probes
28 | B19 | -0.46 PBM z-score against 500 random probes
29 | B6 | 6.86 PBM z-score against 500 random probes
30 | B20 | -0.03 PBM z-score against 500 random probes
31 | B7 | 6.61 PBM z-score against 500 random probes
32 | B21 | -0.4 PBM z-score against 500 random probes
33 | B22 | -0.49 PBM z-score against 500 random probes
34 | B8 | -0.19 PBM z-score against 500 random probes
35 | B11 | 7.1 PBM z-score against 500 random probes
36 | B23 | -0.25 PBM z-score against 500 random probes

biological target: RARb:RXRa (Homo sapiens, UniProt P10826;P19793 full;full); experiment: as above; settings: tags: His kept;His cleaved; copies: 1;1; label: surface-attached array probe
Method in brief: as §1

RARb:RXRa, sequence (P10826 whole entry, chain 1 of 2): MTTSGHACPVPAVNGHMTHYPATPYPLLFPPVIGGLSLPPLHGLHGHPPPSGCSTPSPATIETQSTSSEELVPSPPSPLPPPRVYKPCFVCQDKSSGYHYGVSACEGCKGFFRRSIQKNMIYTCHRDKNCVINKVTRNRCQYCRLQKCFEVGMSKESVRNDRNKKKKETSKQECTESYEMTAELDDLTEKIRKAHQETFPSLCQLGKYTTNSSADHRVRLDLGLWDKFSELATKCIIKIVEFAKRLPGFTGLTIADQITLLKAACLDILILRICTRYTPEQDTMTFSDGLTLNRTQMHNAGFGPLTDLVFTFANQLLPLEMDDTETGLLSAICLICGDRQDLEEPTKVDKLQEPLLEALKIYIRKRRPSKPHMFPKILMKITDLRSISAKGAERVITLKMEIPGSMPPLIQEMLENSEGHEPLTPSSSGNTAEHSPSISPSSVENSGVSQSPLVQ
RARb:RXRa, sequence (P19793 whole entry, chain 2 of 2): as the sequence (P19793 whole entry) above

Row | Binder | binding signal
37 | B14 | -0.53 PBM z-score against 500 random probes
38 | B6 | 5.98 PBM z-score against 500 random probes
